Assays:
Experiment in all cases: cell-based or functional assay
dCas9(N/C)-synBDKRB2 = biological target: dCas9(N/C)-synBDKRB2
TMt-dCas9(N/C)VP64 = biological target: TMt-dCas9(N/C)VP64
TMt-NES-dCas9VP64 = biological target: TMt-NES-dCas9VP64
[1] = biological target: VEGFR2:TEV(N)-NES-dCas9(N)/VEGFR1:TEV(C)-NLS-dCas9(C)VP64 heterodimer, both with TCS(QG)
dCas9(N/C)-synVEGFR1/2RI = biological target: dCas9(N/C)-synVEGFR1/2RI
[2] = biological target: dCas9(N/C)-synVEGFR1/2 (heterodimer of dCas9(N)-synVEGFR2 with TCS(QL) and dCas9(C)-synVEGFR1 with TCS(QG))

Sequence of VEGFA121 (P15692 other isoform, or with tags, fused parts or gaps limits assumed): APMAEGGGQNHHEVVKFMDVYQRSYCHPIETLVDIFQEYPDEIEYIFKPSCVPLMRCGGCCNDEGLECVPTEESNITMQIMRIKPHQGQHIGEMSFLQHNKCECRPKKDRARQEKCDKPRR

## Bradykinin (from UniProt P01042 381-389) (peptide)
dCas9(N/C)-synBDKRB2
  fold increase in EYFP output activation score (HTLA cells): > 900 fold
  half-maximal effective agonist concentration (EC50), EYFP reporter dose-response, 0.01 nM-10 µM bradykinin: 603 nM

## TEV protease (from UniProt P04517 2038-2273) (enzyme)
TMt-dCas9(N/C)VP64
  fold increase in output reporter activation score: 234 fold
TMt-NES-dCas9VP64
  fold increase in reporter activation score upon TEV expression: 35 fold

## VEGFA121 (from UniProt P15692 181-395) (ligand)
[1]
  EYFP activation score, VEGFA121-dependent ON/OFF fold differential (HEK-293T reporter assay): 5.5 fold
dCas9(N/C)-synVEGFR1/2RI
  EYFP target gene induction with VEGFA121 and rapamycin together (AND gate, with FRB-VP64): > 90 fold
[2]
  ASCL1 mRNA levels, RT-qPCR (FIG. 2F legend): 50 fold
  ASCL1 mRNA levels, RT-qPCR, relative to the no-agonist condition: 48.3 fold
  TNFα mRNA, RT-qPCR, relative to no-agonist conditions: 18 fold
  TSP-1 mRNA, RT-qPCR, relative to no-agonist conditions: 16.2 fold
  fold increase in EYFP activation score (FIG. 2D): 1180 fold
  fold increase in EYFP activation score (HEK-293T reporter assay): 1000 fold

Reference: US20200207829A1, “CHIMERIC RECEPTORS” (Oxford University Innovation Limited, priority 2017, published 2020)
